Measured values from patent US20070224125A1 (APPLIED RESEARCH SYSTEMS ARS HOLDING N V, published 2007).

Target: T1, Bovine Serum Albumin (BSA) (bovine, UniProt P02769 25-607)
T1 construct: Negative control
Assay: proteins spotted on nitrocellulose filters, incubated with radiolabeled chemokine

T1 sequence (P02769 25-607 limits assumed): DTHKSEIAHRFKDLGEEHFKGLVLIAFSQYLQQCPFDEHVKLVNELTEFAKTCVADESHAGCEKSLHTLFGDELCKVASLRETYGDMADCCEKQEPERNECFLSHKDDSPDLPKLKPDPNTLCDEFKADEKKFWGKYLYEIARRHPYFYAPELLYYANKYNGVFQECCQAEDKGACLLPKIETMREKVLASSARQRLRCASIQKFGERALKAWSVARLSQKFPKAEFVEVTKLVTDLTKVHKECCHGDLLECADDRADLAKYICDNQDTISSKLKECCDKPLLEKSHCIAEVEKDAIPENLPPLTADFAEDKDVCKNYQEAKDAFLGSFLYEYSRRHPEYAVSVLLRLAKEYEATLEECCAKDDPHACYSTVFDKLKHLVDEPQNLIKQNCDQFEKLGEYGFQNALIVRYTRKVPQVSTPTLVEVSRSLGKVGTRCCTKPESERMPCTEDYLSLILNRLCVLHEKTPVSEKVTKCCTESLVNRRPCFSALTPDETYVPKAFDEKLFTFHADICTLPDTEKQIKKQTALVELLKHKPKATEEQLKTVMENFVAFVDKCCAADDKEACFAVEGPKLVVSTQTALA

B1: CCL3/MIP-1alpha (ligand, UniProt P10147 24-92, looked up)
chain: SLAADTPTACCFSYTSRQIPQNFIADYFETSSQCSKPGVIFLTKRSRQVCADPSEEWVQKYVSDLELSA
notes: also called CCL/MIP-1alpha; 125I-MIP-1alpha
B1: no binding.

B2: CCL5/RANTES (ligand, UniProt P13501 24-91, looked up)
chain: SPYSSDTTPCCFAYIARPLPRAHIKEYFYTSGKCSNPAVVFVTRKNRQVCANPEKKWVREYINSLEMS
B2: no binding.
